Experimental data as given in US20230265458A1.

Legend:
[1] = target: human CD19 (hCD19, hCD19 variant 2), expressed on U87MG cells from the sRRVe-F4-hCD19 vector (human) (UniProt P15391); experiment: cell-based or functional assay
[2] = target: truncated human CD19 (hCD19t, CD19t), 323 amino acids, 233 amino acids of the cytoplasmic domain removed (human) (UniProt P15391); experiment: cell-based or functional assay

Question: Which decrease in cell viability, WST-1 assay, E:T ratio 0.5:1, first day; U87MG cells transfected with sRRVgp-F4-DsRed/sRRVe-F4-hCD19 [1] does the source give for “anti-CD19 CAR-T (chimeric antigen receptor against CD19 on T cells)” here?
Answer: 54.9%

Question: What about the decrease in cell viability, WST-1 assay, E:T ratio 1:1, within 1 day; U87MG cells transfected with sRRVgp-F4-DsRed/sRRVe-F4-hCD19 [1] of the same substance?
Answer: 25.8%

Question: What about the decrease in cell viability, WST-1 assay, E:T ratio 0.5:1, first day; U87MG cells transfected with sRRVgp-F4-hCD19t/sRRVe-F4-TK [2] of the same substance?
Answer: 54.3%

Question: And the decrease in cell viability, WST-1 assay, E:T ratio 0.5:1, first day; U87MG cells transfected with sRRVgp-F4-yCD/sRRVe-F4-hCD19t [2]?
Answer: 58.2%

Question: What about the decrease in cell viability, WST-1 assay, E:T ratio 1:1, within 1 day; U87MG cells transfected with sRRVgp-F4-hCD19t/sRRVe-F4-TK [2] of the same substance?
Answer: 24.8%

Question: What about the decrease in cell viability, WST-1 assay, E:T ratio 1:1, within 1 day; U87MG cells transfected with sRRVgp-F4-yCD/sRRVe-F4-hCD19t [2] of the same substance?
Answer: 20%
